According to patent US20070072177A1 (CRUCELL HOLLAND B V, published 2007):

T1: rabies virus glycoprotein (G protein) of strain CVS-11 (rabies virus strain CVS-11, UniProt O92284 20-524)
T1 sequence: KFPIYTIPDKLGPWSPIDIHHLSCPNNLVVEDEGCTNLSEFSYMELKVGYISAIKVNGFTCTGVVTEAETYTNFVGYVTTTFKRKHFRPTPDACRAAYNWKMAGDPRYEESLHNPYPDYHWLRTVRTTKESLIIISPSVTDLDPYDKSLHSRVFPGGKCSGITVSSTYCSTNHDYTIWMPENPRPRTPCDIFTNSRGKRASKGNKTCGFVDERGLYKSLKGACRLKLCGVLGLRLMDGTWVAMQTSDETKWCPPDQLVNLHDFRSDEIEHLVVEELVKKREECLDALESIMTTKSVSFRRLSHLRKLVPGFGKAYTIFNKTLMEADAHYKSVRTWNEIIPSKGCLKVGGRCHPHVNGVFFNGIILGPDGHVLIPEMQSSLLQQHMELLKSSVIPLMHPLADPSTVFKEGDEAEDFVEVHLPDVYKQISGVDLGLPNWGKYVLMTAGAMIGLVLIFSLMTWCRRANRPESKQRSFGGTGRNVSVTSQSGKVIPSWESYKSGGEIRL

T2: glycoprotein of rabies virus strain CVS-11 (rabies virus strain CVS-11, UniProt O92284 20-524)
T2 sequence: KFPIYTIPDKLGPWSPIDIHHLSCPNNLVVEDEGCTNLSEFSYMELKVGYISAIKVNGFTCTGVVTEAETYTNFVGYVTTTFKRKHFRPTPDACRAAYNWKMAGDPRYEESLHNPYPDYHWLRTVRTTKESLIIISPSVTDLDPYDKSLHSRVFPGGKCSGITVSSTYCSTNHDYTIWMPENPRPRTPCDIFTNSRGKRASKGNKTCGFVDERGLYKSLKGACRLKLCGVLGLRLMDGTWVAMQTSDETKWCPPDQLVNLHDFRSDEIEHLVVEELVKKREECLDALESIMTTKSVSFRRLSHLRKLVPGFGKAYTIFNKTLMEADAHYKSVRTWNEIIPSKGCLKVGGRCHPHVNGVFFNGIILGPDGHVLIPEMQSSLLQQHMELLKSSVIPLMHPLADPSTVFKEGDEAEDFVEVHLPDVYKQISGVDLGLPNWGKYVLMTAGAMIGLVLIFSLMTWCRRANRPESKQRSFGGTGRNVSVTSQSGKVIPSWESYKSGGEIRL


Legend:
[1] = molecular target: T1, rabies virus glycoprotein (G protein) …; experiment: cell-based or functional assay
[2] = molecular target: T2, glycoprotein of rabies virus strain …; experiment: cell-based or functional assay
[3] = molecular target: T3, purified rabies virus glycoprotein (rabies virus ERA strain) (rabies virus strain ERA, UniProt P03524 20-524); experiment: phage ELISA on coated purified G protein (ERA), anti-M13-HRP
[4] = molecular target: T3, purified rabies virus glycoprotein …; experiment: SPR (BIAcore3000), ERA glycoprotein amine-coupled to CM5 chip, antibody injected

Binder | Neutralizing potency (modified RFFIT) [1] [IU/mg] | Potency (IU/ml) [2] [IU/ml] | OD 492 nm [3] [OD 492 nm] | Kd [4] [nM]
CR57 (antibody, V domains shown) VH: QVQLVQSGAEVKKPGSSVKVSCKASGGTFNRYTVNWVRQAPGQGLEWMGGIIPIFGTANYAQRFQGRLTITADESTSTAYMELSSLRSDDTAVYFCARENLDNSGTYYYFSGWFDPWGQGTLVTVSS VL: QSALTQPRSVSGSPGQSVTISCTGTSSDIGGYNFVSWYQQHPGKAPKLMIYDATKRPSGVPDRFSGSKSGNTASLTISGLQAEDEADYYCCSYAGDYTPGVVFGGGTKLTVLG | 3800 | – | – | –
SC04-144 (scFv) scFv: AMAQVQLQELGGGVVQPGRSLRLSCAASGFTFGSYGMHWVRQAPGKGLEWVATISYDGSIKDYADSEKGRFTISRDNSKNTLYLQMNSLRAEDTAVYYCAKGGKTGEFDYWGQGTLVTVSSGTGGSGGTGSGTGGSTDIQLTQSPSSLSASVGDRVTITCRASQGISSYLAWYQQKPGKGPKLLIYAASTLQSGVPSRFSGSGSGTDFSLTISSLQPEDLATYYCQQYDSYPLTFGGGTKVEIKRAAA | – | 6 | 0.775 | –
SC04-108 (scFv) scFv: AMAEVQLVQSGGGLVQPGGSLRLSCAASGFTFSSYGMHWVRQAPGKGLEWVAVILYDGSDKFYADSVKGRFTISRDNSKDTLYLQMNSLRAEDTAVYYCAKFMIVADDAFDIWGQGTMVTVSSGTGGSGGTGSGTGGSTDIQLTQSPSSLSASVGDRVTITCRASQGISSHLVWYQQKPGKAPKSLIYAASSLQSGVPSRFSGSESATDFTLTISSLQPEDFATYYCQQYYSYPITFGQGTRLEIKRAAA | – | 1 | 0.363 | –
SC04-126 (scFv) scFv: AMAQVTLKESGPTLVNPTQTLTLTCTFSGFSLSTGGVGVGWFRQPPGKALEWLARIDWDDDKYYSTSLKTRLTISKDTSKIQVVLTMTNMDPVDTATYYCARMGFTGTYFDYWGQGTLVTVSSGTGGSGGTGSGTGGSTQSVLTQPPSVSVAPGKTARITCGGNNIGSKSVHWYQQKPGQAPVLVIYYDSDRPSGIPERFSGSNSGNTATLTISRVEAGDEADYYCQVWDSSSDHPYVFGTGTKLTVLGAAA | – | 0.1 | 0.232 | –
CR04-010 (antibody, V domains shown) VH: QVQLVESGGDLVQPGRSLRLSCAASGFTFSSYGMHWVRQAPGKGLEWVADISYDGSNKYYADSVKGRFTISRDNSKNTLYLQMNSLRAEDTAVYYCAKDGLDLTGTIQPFGYWGQGTLVTVSS VL: AIQMTQSPSSLSASVGDRVTITCRASQGIRNDLGWYQQKPGKAPKLLIYAASSLQSGVPSRFSGSGSGTDFTLTISSLQPEDFATYYCLQDYNYPRTFGQGTKVEIKR | 3000 | – | – | –
CR04-098 (antibody, V domains shown) VH: QVQLVESGGGAVQPGRSLRLSCAASGFTFSSYGMHWVRQAPGKGLEWVAVILYDGSDKFYADSVKGRFTISRDNSKNTLYLQMNSLRAEDTAVYYCAKVAVAGTHFDYWGQGTLVTVSS VL: DIQMTQSPSSLSASVGDRVTITCRASQGIRNDLGWYQQKPGKAPKLLIYAASSLQSGVPSRFSGSGSGTDFTLTISSLQPEDFATYYCQQLNSYPPTFGGGTKVEIKT | – | – | – | 4.5
CRJB (antibody, V domains shown) VH: QITLKETGPTLVKPTQTLTLTCTFSGFSLSTSGVGVGWIRQPPGKALEWVTLIYWDDDKRYSPSLENRVTIRKDTSKNQVALTMTNMDPLDTGTYYCAHRQHISSFPWFDSWGQGTLVTVSS VL: SYVLTQPPSVSVAPGKTARINCGGNNIEYRSVHWYQQKSGQAPVAVIYDNSDRPSGIPERFSGSKSGNTATLTISRVEAGDEADYYCQVWDISSDVVFGGGTKLTVLG | 605 | – | – | –
SC04-140 (scFv) scFv: AMAQMQLVQSGGGVVQPGRSLRLSCAASGFTFSSYGMHWVRQAPGKGLEWVAVILYDGSNKYYADSVKGRFTISRDNSKNALYLQMNSLRAEDTAVYYCAKVTNPGDAFDIWGQGTMVTVSSGTGGSGGTGSGTGGSTDIQMTQSPSSLSASVGDRVTITCRASQGISSALAWYQQKPGKAPKLLIYDASSLESGVPSRFSGSGSGTDFTLTISSLQPEDFATYYCQQFNSYPLTFGGGTKVEIKRAAA | – | 1 | 0.865 | –
SC04-125 (scFv) scFv: AMAQVQLVESGGGVVQPGRSLRLSCAASGFTFSSYGMHWVRQAPGKGLEWVAVISYDGSDKYYADSVKGRFTISRDNSKNTLYLQMNSLRAEDTAVYYCAKIATAGTGFDYWGQGTLVTVSSGTGGSGGTGSGTGGSTDIQMTQSPSSVSASVGDRVTITCRASQGISSYLAWYQQKPGKAPKLLIYDASSLESGVPSRFSGSGSGTEFTLTISSLQPDDFATYYCQQLNSYPLTFGGGTKVEIKRAAA | – | 3 | 0.735 | –
SC04-146 (scFv) scFv: AMAEVQLVQSGGGVVQPGRSLRLSCAASGFTFSSYGMHWVRQAPGKGLEWVATISYDGSIKDYADSEEGRFTISRDNSKNTLYLQMNSLRAEDTAVYYCAKGGKTGEFDYWGQGTLVTVSSGTGGSGGTGSGTGGSTDVVMTQSPATLSVSPGESATLFCRASESVYSNLAWYQHKPGRAPRLLIYGASTRATGIPARFDGTGSGTDFTLTISSLQSEDFAVYYCQQYNDWPITFGQGTRLEIKRAAA | – | 3 | 0.484 | –
SC04-120 (scFv) scFv: AMAEVQLVQSGGGLVQPGRSLRLSCAASGFTFSTYGMHWVRQAPGKGLEWVATISYDGSIKDYADSEKGRFTISRDNSKNTLYLQMNSLRAEDTAVYYCAKGGKTGEFDYWGQGTLVTVSSGTGGSGGTGSGTGGSTDIQLTQSPSTLSASVGDRVTITCRASQGINSYLAWYQQEPGKAPKLLIYAASTLQSGVPSRFSGSGSGTEFTLTISSLQPEDFATYYCQQLNSYPFTFGPGTKVDIKRAAA | – | 6 | 0.571 | –
